Assay results from EP1053001B1 (AMYLIN PHARMACEUTICALS, INC., dated 2010).
No end group written: not given here.

T1: calcitonin receptors (human T47D / MCF7 breast carcinoma cells) (human, UniProt P30988 25-474)
T1 sequence (looked up): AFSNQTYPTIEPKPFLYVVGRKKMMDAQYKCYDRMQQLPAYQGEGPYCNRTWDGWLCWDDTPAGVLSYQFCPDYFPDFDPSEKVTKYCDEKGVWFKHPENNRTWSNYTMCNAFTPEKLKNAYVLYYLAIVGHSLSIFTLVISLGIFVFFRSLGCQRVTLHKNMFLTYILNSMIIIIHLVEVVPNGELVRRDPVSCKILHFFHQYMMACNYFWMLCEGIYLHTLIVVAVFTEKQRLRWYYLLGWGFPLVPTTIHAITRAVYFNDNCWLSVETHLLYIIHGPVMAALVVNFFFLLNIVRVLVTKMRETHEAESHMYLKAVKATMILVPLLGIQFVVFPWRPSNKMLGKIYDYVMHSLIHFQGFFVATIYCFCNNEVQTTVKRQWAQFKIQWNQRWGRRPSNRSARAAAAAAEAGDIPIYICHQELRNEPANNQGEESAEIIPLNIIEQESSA

T2: rat calcitonin C1a receptor (rat, UniProt P32214 25-516)
T2 sequence (looked up): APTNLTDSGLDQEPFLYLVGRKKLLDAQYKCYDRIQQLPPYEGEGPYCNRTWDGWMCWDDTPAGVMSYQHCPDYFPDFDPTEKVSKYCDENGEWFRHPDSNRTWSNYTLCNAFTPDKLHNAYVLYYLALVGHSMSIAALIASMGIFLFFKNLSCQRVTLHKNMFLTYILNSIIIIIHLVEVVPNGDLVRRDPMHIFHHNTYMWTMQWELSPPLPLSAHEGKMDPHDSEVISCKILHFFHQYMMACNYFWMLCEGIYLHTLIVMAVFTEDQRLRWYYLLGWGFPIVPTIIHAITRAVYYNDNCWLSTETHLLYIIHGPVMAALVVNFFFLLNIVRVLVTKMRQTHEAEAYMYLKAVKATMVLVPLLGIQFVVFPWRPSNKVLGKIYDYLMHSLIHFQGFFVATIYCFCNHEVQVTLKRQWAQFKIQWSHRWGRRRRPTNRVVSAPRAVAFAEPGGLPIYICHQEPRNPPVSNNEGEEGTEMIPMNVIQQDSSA


Key:
[1] = target: T1, calcitonin receptors (human T47D / MCF7 …); assay: cell-based or functional assay
[2] = target: T2, rat calcitonin C1a receptor; assay: cell-based or functional assay
[3] = target: T3, amylin receptors (rat nucleus accumbens membranes) (rat); assay: radioligand competition vs 125I-BH-rat amylin, rat nucleus accumbens membranes
T3 construct: Assayed as a tissue membrane preparation, not on intact cells; also called amylin (nucleus accumbens) receptors

IC50 [3] [nM]	Binder	further results
	XLSTAVLGRLSQELHRLQTYPRTNTGSNTY (acetylated with acetic anhydride (site not given)) [Compound 6]	fold lower potency than human calcitonin, adenylyl cyclase, MCF7-7 cells [1]: 80 fold
	LSTCVLGRLSQELHRLQTYPRTNTGSNTY (not fully specified) [Compound 1]	EC50 of adenyl cyclase stimulation, HEK293 cells stably transfected with rat calcitonin C1a receptor [2]: 0.97 nM
0.066	LSTAVLGRLSQELHRLQTYPRTNTGSNTY-NH2 (not fully specified) [Compound 4]	
0.092	LSTSVLGRLSQELHRLQTYPRTNTGSNTY-NH2 [Compound 5]	
